Columns and labels:
[1] = target: cognate MHC/peptide of the 264scTCR (HLA-A2.1/p53 aa 264-272), form in SPR not stated (human); test: surface plasmon resonance, physiological conditions
[2] = target: HLA-A2.1 presenting human p53 (aa 149-157) control peptide, on T2 cells (human); test: flow cytometry on peptide-loaded T2 cells, fusion protein at 125 pM, H57-PE detection
[3] = target: HLA-A2.1 presenting p53 (aa264-273) peptide, on T2 cells (human); test: as above
[4] = target: HLA-A2.1 presenting p53 (aa264-273) peptide, on T2 cells (human); test: quantitative flow cytometry on peptide-loaded T2 cells, PE anti-human IgG detection

Row | Kd [1] [nM] | mean channel fluorescence (MCF) [2] [MCF] | mean channel fluorescence (MCF) [3] [MCF] | fold increase in staining against 264scTCR/BirA tetramers [4] [fold] | Substance
1 | 100 |  |  |  | 264scTCR
2 |  | 13.4 | 95.1 |  | 264scTCR/BirA (monomeric, without biotinylation)
3 |  | 119 | 863 | 4 to 10 | 264scTCR/IgG1 fusion protein (from UniProt P01857 1-330)
4 |  | 10.9 | 55.3 |  | 264scTCR/trunIgG1 (from UniProt P01857 1-98)
